Experiments:
Assay in all cases: phage ELISA
[1] = target: T1, Streptavidin (Pierce, 21125) (UniProt P22629 37-163, limits assumed)
T1 construct: coated on the ELISA plate; non-related antigen; also called SA

[2] = target: T2, Recombinant biotinylated Human CD19 Protein-Fc (Kactus, CD2-HE121) (human, UniProt P15391 20-291, biotinylated (site not stated))
T2 construct: bought; also called CD19-Fc-Bio; Kactus-CD19-FC-Bio; not shown: Fc tag
T2 sequence (looked up): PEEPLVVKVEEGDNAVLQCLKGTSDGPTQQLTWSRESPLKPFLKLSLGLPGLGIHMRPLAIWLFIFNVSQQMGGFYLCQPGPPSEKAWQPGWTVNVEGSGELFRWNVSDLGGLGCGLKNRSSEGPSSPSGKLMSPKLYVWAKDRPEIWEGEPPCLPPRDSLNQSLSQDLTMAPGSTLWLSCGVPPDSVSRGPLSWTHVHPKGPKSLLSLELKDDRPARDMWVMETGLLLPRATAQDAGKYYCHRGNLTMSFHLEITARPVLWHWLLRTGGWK

[3] = target: T3, Biotinylated Recombinant human BAFFR Protein (Kactus, BAF-HM40RB) (human, UniProt Q96RJ3 7-71, limits assumed, biotinylated (site not stated))
T3 construct: bought; also called Kactus-BAFFR-his-Bio; not shown: his tag
T3 sequence (Q96RJ3 7-71 limits assumed): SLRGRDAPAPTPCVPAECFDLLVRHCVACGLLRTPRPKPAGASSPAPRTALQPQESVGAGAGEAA

Measured: binding result

T1 sequence (P22629 37-163 limits assumed): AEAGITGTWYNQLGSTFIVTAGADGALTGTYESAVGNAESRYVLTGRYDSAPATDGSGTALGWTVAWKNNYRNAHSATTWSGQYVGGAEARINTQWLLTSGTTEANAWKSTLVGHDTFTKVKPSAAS

B1: phage monoclonal clone #61 (single-domain antibody) (VHH)
VHH: QVQLVQSGAEVKKPGSSVKVSCKASGGTFSNYAISWVRQAPGQGLEWMGWISAYNGDTKYAQRLQGRVTMTTDTSTSTAYMELRNLRSDDTAVYYCARYESMSGQDIWGQGTLVTVSS
no binding: all assays above

B2: phage monoclonal clone #42 (single-domain antibody) (VHH)
VHH: EVQLLESGGGLVQPGGSLRLSCAASGFTFSHSAMGWVRQAPGKGLEWVSSIYARGGYTYYADSVKGRFTISRDNSKNTLYLQMNSLRAEDTAVYYCARGYHLEYMVSQDVWGQGTLVTVSS
no binding: all assays above

B3: phage monoclonal clone #62 (single-domain antibody) (VHH)
VHH: QVQLVQSGAEVKKPGESLRISCKASGYSFSNHWIGWVRQKPGKGLEWMGSVYPGDSDTRYSPSFQGHVTVSADKSMNTAYLQWSSLKTSDTAMYYCARGGTIDGDYGGRQDFWGQGTMVTVSS
no binding: all assays above

B4: phage monoclonal clone #60 (single-domain antibody) (VHH)
VHH: QVQLVESGGGLVQPGGSLRLSCAASGFTFSSYEMNWVRQAPGKGLEWVSYISSSGSTIYYADSVKGRFTISRDNAKNSLYLQMNSLRAEDTAVYYCARVAQREGDVWGKGTTVTVSS
no binding: all assays above
